Patent US20250313611A1 (VIB VZW, published 2025)

T1: MERS-COV spike expressed on transfected cells (MERS-CoV, UniProt K9N5Q8 18-1353)
T1 sequence: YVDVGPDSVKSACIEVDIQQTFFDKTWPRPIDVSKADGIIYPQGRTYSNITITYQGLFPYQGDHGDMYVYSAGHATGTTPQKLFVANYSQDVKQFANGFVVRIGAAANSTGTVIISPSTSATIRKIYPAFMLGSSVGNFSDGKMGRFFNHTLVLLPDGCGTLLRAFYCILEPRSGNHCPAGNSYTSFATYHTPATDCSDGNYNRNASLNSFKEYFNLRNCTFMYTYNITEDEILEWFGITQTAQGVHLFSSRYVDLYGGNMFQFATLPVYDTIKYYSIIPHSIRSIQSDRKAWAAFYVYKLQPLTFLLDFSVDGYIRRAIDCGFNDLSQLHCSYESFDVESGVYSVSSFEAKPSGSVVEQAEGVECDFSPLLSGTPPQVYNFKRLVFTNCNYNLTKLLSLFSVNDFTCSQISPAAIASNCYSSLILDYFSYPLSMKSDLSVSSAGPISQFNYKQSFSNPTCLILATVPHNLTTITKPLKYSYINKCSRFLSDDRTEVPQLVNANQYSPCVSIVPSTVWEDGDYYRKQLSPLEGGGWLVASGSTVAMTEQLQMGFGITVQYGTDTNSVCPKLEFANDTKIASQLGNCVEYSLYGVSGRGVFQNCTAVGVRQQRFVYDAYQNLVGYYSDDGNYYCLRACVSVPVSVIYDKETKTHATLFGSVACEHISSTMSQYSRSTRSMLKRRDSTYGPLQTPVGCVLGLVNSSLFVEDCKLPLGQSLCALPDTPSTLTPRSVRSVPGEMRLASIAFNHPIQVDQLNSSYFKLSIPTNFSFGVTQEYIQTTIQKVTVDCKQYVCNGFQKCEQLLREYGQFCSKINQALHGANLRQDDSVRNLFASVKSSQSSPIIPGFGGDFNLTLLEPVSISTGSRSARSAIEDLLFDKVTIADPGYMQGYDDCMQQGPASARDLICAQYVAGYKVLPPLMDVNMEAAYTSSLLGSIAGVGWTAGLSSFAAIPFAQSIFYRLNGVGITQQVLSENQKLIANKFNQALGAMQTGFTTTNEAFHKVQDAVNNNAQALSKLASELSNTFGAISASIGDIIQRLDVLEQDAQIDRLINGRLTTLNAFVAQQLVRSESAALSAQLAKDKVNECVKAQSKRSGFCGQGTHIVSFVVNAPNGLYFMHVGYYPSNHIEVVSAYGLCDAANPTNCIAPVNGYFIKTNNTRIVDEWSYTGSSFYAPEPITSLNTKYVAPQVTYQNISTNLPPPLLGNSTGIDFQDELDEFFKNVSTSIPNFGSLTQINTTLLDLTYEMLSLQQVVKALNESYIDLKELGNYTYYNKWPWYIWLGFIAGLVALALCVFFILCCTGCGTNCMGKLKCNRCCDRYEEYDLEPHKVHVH


Legend:
[1] = biological target: T2, SARS-COV-2 RBD (His-tagged, Sinobiologicals) (SARS-CoV-2 (Wuhan), UniProt P0DTC2 319-541); assay: ELISA, coated antigen, dilution series, OD450 [1/3]
[2] = biological target: T3, BSA (bovine, UniProt P02769); assay: ELISA, coated BSA, dilution series, OD450 [1/3]
T3 construct: coated control antigen

[3] = biological target: T1, MERS-COV spike expressed on transfected …; assay: flow cytometry, transfected HEK cells, MFI GFP+/GFP- cells [2/3]
[4] = biological target: T1, MERS-COV spike expressed on transfected …; assay: flow cytometry, transfected HEK cells, MFI GFP+/GFP- cells [1/3]
[5] = biological target: T3, BSA; assay: ELISA, coated BSA, dilution series, OD450 [2/3]
[6] = biological target: T2, SARS-COV-2 RBD (His-tagged, …); assay: ELISA, periplasmic extract 1/10, OD450 antigen/OD450 BSA [B]
[7] = biological target: T2, SARS-COV-2 RBD (His-tagged, …); assay: ELISA, periplasmic extract 1/10, OD450 antigen/OD450 BSA [D00002 FIG. 1 cont. D]
[8] = biological target: T1, MERS-COV spike expressed on transfected …; assay: flow cytometry, transfected HEK cells, MFI GFP+/GFP- cells [3/3]
[9] = biological target: T2, SARS-COV-2 RBD (His-tagged, …); assay: ELISA, periplasmic extract 1/10, OD450 antigen/OD450 BSA
[10] = biological target: T2, SARS-COV-2 RBD (His-tagged, …); assay: ELISA, coated antigen, dilution series, OD450 [3/3]
[11] = biological target: T3, BSA; assay: ELISA, coated BSA, dilution series, OD450 [3/3]
[12] = biological target: T2, SARS-COV-2 RBD (His-tagged, …); assay: ELISA, periplasmic extract 1/10, OD450 antigen/OD450 BSA [D00002 FIG. 1 cont. D]; remark: listed apart in the source

T3 sequence (P02769 25-607 limits assumed): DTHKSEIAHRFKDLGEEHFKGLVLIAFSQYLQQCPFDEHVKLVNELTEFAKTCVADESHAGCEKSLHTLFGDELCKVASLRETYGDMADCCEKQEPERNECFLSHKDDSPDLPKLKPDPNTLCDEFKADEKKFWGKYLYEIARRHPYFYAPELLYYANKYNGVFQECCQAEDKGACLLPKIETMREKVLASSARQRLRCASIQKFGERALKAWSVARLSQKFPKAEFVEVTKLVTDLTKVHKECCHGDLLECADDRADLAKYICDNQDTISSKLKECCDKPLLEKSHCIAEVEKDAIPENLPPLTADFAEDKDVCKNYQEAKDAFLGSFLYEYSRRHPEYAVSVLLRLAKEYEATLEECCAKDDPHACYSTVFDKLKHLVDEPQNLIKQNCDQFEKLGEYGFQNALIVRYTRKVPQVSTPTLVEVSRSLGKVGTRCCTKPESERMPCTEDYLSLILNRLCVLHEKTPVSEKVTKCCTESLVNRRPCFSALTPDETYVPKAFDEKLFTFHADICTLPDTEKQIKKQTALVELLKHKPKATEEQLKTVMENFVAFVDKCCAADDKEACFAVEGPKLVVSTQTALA

Row | Binder | binding result [2] | binding result [3] | binding result [4] | binding result [5] | binding result [9] | also measured
1 | VHH R3_DC23 (VHH) VHH: QVQLQESGGGLVQAGDSLTLSCAVSGRIFSTYTMGWFRQAPGKEREFVAAVRWGAGTIYYADSMKGRFTISRDSAKNTVDLQMNSTKPEDTAVYYCGAAYVSKANYGSLWYQDSRRYDYWGQGTQVTVSS | no binding (tested: 10 µg/ml) | no binding (tested: not given) | – | – | – | binding result [1]: no binding (tested: 10 µg/ml)
2 | VHH R3_C4 (VHH) VHH: QVQLQESGGGLVQAGDSLRLSCAVSGRPFSTYTMGWFRQAPGKEREFVAAMRWSGGTIYYADSVKGRFTISRDNDKNTVNLEMNSLKPEDTAVYYCAAAYVSKANYGSLWYRASGLYDYWGQGTQVTVSS | – | – | no binding (tested: not given) | no binding (tested: 10 µg/ml) | – | binding result [6]: no binding (tested: extract 1/10, concentration not given)
3 | VHH R4_DC16 (VHH) VHH: QVQLQESGGGLVQAGDSLRLSCAVSGRPFSTYTMGWFRQAPGKEREFVAAMRWSGGTIYYADSVKGRFTISRDNAQNTVNLQMNSLKPEDTAVYYCAAAYVSKANYGSSWYRNSGLYDYWGQGTQVTVSS | – | – | – | no binding (tested: 10 µg/ml) | – | binding result [7]: no binding (tested: extract 1/10, concentration not given); binding result [8]: no binding (tested: not given)
4 | VHH R3_DC20 (VHH) VHH: QVQLQESGGGLVQAGDSLRLSCAVSGRPFSTYTMGWFRQAPGKEREFVAAMRWSGGTIYYADSVKGRFTISRDNAQNTVNLQMNSLEPEDTAVYYCAAAYVSKANYGSLWYRNSGLYDYWGQGTQVTVSS | no binding (tested: 10 µg/ml) | – | no binding (tested: not given) | – | no binding (tested: extract 1/10, concentration not given) | –
5 | VHH R3_DC2 (VHH) VHH: QVQLQESGGGLVQTGDSLRLSCAVSGRPFSTYTMGWFRQAPGKEREFVASMRWSGGTKYYSDSVKGRFSISRDNDQNTVNLQMNSLKPEDTAVYYCAAAYVSKANYGSLWYRNSGLYDYWGQGTQVTVSS | – | – | no binding (tested: not given) | no binding (tested: 10 µg/ml) | no binding (tested: extract 1/10, concentration not given) | –
6 | VHH R3_DC9 (VHH) VHH: QVQLQESGGGLVQTGDSLRLSCAVSGRPFSTYTMGWFRQAPGKEREFVASMRWSGGTMYYSDSVKGRFTISRDNDKNTVNLQMNSLKPEDTAVYYCAAAYVSKANYGSLWYRNSGLYDYWGQGTQVTVSS | – | – | no binding (tested: not given) | – | no binding (tested: extract 1/10, concentration not given) | –
7 | VHH R4_DC20 (VHH) VHH: QVQLQESGGGLVQTGDSLRLSCAVSGRPFSTYTMGWFRQAPGKEREFVASMRWSGGTMNYADSVKGRFTISRDNDQNTVNLQMNSLKPEDTAVYYCAAAYVSKANYGSLWYRNSGLYDYWGQGTQVTVSS | no binding (tested: 10 µg/ml) | – | – | – | – | binding result [1]: no binding (tested: 10 µg/ml); binding result [8]: no binding (tested: not given)
8 | VHH R4_DC9 (VHH) VHH: QVQLQESGGGLVQAGDSLRLSCAASGRIFSTYTMGWFRQAPGMEREFVAAIRWSGSTVYYADSVKGRFTISRDNAKNTVYLQMNSLKPEDTAVYYCAAARVSKANYGTLWYRASGLYDYWGQGTQVTVSS | – | no binding (tested: not given) | – | – | – | binding result [10]: no binding (tested: 10 µg/ml); binding result [11]: no binding (tested: 10 µg/ml)
9 | VHH R4_DC13 (VHH) VHH: QVQLQESGGGLVQTGDSLRLSCAVSGRPFSTYTMGWFRQAPGKEREFVASMRWSGGTVYYSDSVKGRFTISRDNDKNTVNLQMNNLKPEDTAVYYCAAAYVSKANYGSFWYRNSDLYDYWGQGTQVTVSS | – | no binding (tested: not given) | – | no binding (tested: 10 µg/ml) | – | binding result [12]: no binding (tested: extract 1/10, concentration not given)
10 | VHH R4_DC6 (VHH) VHH: QVQLQESGGGLVQAGDSLRLSCAASGRILSTFTMGWFRQAPGKEREFVAAMRWNGGTKNYADSVKGRFTISRDNANSVVYLQMNSTKPEDTAVYYCAAAYVSKANYGSLWYRTPSLYDYWGQGTQVTVSS | – | no binding (tested: not given) | – | – | – | binding result [10]: no binding (tested: 10 µg/ml); binding result [11]: no binding (tested: 10 µg/ml)
